Laboratory results taken from patent EP3873932A1.

Legend:
[1] = target: human amyloidomas of kappa subtypes; assay: in vivo microPET of mice implanted with kappa subtype amyloid
[2] = target: human amyloidomas (all implanted human amyloid extracts); assay: in vivo microPET, 4 days after tracer injection
[3] = target: human amyloidomas of lambda subtypes; assay: in vivo microPET of mice implanted with lambda subtype amyloid
[4] = target: human amyloidomas (all implanted human amyloid extracts); assay: in vivo microPET

B1: [124I]CAEL-101 (antibody, human IgG1, V domains shown)
VH: QVQLKESGPGLVAPSQSLSITCTVSGFSLSSYGVSWVRQPPGKGLEWLGVIWGDGSTNYHPNLMSRLSISKDISKSQVLFKLNSLQTDDTATYYCVTLDYWGQGTSVTVSS
VL: DVVMTQTPLSLPVSLGDQASISCRSSQSLVHRNGNTYLHWYLQKPGQSPKLLIYKVSNRFSGVPRDFSGSGSGTDFTLKISRVEAEDLGLYFCFQTTYVPNTFGGGTKLEIK
modifications: 124I radiolabel by the standard iodogen reaction (residues and chain not stated)
[1]
  T:B ratio (amyloid deposit-to-background, SUVmax): 4.1
[2]
  T:B ratio (amyloid deposit-to-background, SUVmax): 2.1 to 4.2
[3]
  T:B ratio (amyloid deposit-to-background, SUVmax): 2.8
[4]
  T:B uptake (amyloid deposit-to-background): > 2.1
